± gives the uncertainty stated by the source.
Assay: protein stability index of a GFP-peptide fusion (yeast GPS) (PSI 1-4); higher = more stable; sorted into four equal gates, so the index is relative within each strain
In short: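 Peptides tiling yeast proteins in 17-residue segments were fused downstream of GFP, with Cherry expressed from the same plasmid. As a pooled library in yeast, mid-log cultures grown in leucine-free medium were sorted into four equal gates by GFP/Cherry fluorescence ratio. Gate plasmids were PCR-amplified and Illumina-sequenced, and barcodes linked reads to strains. Each peptide received a protein stability index equal to the sum of each gate's read frequency times its gate number.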

Sequence	protein stability index (doa10∆)	protein stability index (pdr5∆)	protein stability index (san1∆)	protein stability index (ubr1∆)
IWLIKCCYFIEWKSNHK [SRB8]	1.69 ± 0.067	2.12 ± 0.063	2.55 ± 0.063	2.59 ± 0.15
IWLKDFIAVGQILPESQ [SIR3]		2.37 ± 0.28		
IWNDVVYGEGTSRVTGI [YJL039C/NUP192]	3.35 ± 0.15	3.4 ± 0.17		3.45 ± 0.091
IYAKQQEQLKQMDQQLQ [ARP7]	1.76 ± 0.066	2.05 ± 0.079	2.2 ± 0.1	2.7 ± 0.072
IYINKSVPTNSADAPNP [RET1]	3.19 ± 0.08	3.2 ± 0.061	3.31 ± 0.049	3.29 ± 0.052
IYNGKAFNQVEIRPEML [RPS15]	2.9 ± 0.12	3.04 ± 0.18	3.39 ± 0.11	3.26 ± 0.14
IYNSTDSNSEILNFLNQ [YML103C/NUP188]	3.1 ± 0.2	2.72 ± 0.067	2.71 ± 0.055	2.9 ± 0.076
IYPRTVIDIEIHVLEQD [SKI6]	1.42 ± 0.055	1.88 ± 0.049	1.6 ± 0.15	1.83 ± 0.041
IYQIHIPYAAKLLFQEL [RPB2]	2.64 ± 0.12	1.98 ± 0.12		2.88 ± 0.077
KAANFIQNQSPQFNSPY [SWI1]	1.99 ± 0.061	1.71 ± 0.046	2.37 ± 0.065	2.42 ± 0.058
KACKTADKLVNVTQNEQ [SRP68]	3.02 ± 0.13	3.04 ± 0.095	3 ± 0.073	3.07 ± 0.07
KAEFSKEMTLQKNMNDL [YIL149C/MLP2]	3.21 ± 0.053	3.3 ± 0.086	3.23 ± 0.09	3.07 ± 0.067
KAEKKVELHGKRKLDIG [PRP8]		2.8 ± 0.17	3.13 ± 0.16	
KAELIKPIQNGEIIDIS [ARP9]	3.31 ± 0.087	3.02 ± 0.1	3.33 ± 0.067	2.92 ± 0.092
KAGGECITLDQLAVRAP [RPL18A]	2.1 ± 0.097	2.29 ± 0.085	2.86 ± 0.072	2.57 ± 0.077
KAINQELEDVAVKKLYA [YCS4]	3.26 ± 0.17	3.23 ± 0.13	2.72 ± 0.07	2.94 ± 0.08
KAKKLIQSLPPTLKVNR [RPL38]	2.13 ± 0.039	2.18 ± 0.039	2.02 ± 0.048	2.27 ± 0.036
KAKRAKTGSASTVKGSV [TAF14]	2.9 ± 0.11	2.66 ± 0.24	2.77 ± 0.16	3.16 ± 0.083
KAKRSNLYTPKAEMPPE [PRP8]	2.98 ± 0.084	3.05 ± 0.081	2.84 ± 0.063	2.89 ± 0.077
KAMSSRAGVSQVLNRYT [RPB2]	3.17 ± 0.11	3.21 ± 0.096	2.97 ± 0.073	3.29 ± 0.053

Sequence	protein stability index (doa10∆)	protein stability index (pdr5∆)	protein stability index (san1∆)	protein stability index (ubr1∆)
KANEKKESDESKSAFSF [YJL041W/NSP1]	2.95 ± 0.099	3.4 ± 0.07	3.18 ± 0.042	3.12 ± 0.043
KARNGLDYVRTPAAATS [SNF2]	2.4 ± 0.059	2.44 ± 0.072	2.12 ± 0.08	2.35 ± 0.049
KDDGAFVKFLSKKGSLE [RPL10]	3.51 ± 0.18	3.32 ± 0.14	3.06 ± 0.068	3.25 ± 0.064
KDHDLKIPLPEVHDLIG [POP1]	3.11 ± 0.12	2.91 ± 0.14	2.73 ± 0.21	2.54 ± 0.11
KDILVKTGITKKDEDEE [PRE9]	3.37 ± 0.09	3.27 ± 0.087	2.58 ± 0.23	3.17 ± 0.14
KDKTKNISAEIIRHEKE [SMC4]	2.58 ± 0.12	3.02 ± 0.12	2.99 ± 0.086	2.91 ± 0.1
KDLKFPLPHRVQKSTKT [RPL20A]	2.27 ± 0.053	2.68 ± 0.05	2.58 ± 0.052	2.69 ± 0.043
KDNAKISNNLALVFAAL [SRP68]	2.24 ± 0.051	1.86 ± 0.038	1.97 ± 0.066	2.17 ± 0.04
KDRIIDERTKEFEKKLQ [YIL149C/MLP2]	3.23 ± 0.21	3.06 ± 0.19	2.94 ± 0.086	3.42 ± 0.1
KDYSQILKEEFPKIDSL [RPN5]		2.35 ± 0.24		
KEALLGQLLKDHLIIEP [ARP9]	1.79 ± 0.12	1.51 ± 0.077	1.18 ± 0.16	2.45 ± 0.094
KEALQNNIFKEFTSKIG [SMC1]	2.22 ± 0.064	2.3 ± 0.082	2.52 ± 0.11	2.24 ± 0.073
KEAVFKSLGVKSLGGGA [FAS2]	3.26 ± 0.078	3.36 ± 0.12	3.25 ± 0.069	3.41 ± 0.092
KEEFIMMVNISVLISIP [PCI8]	1.43 ± 0.037	1.33 ± 0.033	1.57 ± 0.074	1.36 ± 0.031
KEEFSSAENRDEKDYLT [CSE2]	2.79 ± 0.083	2.85 ± 0.086	2.65 ± 0.065	2.99 ± 0.12
KEKEAAESPEEADVEMS [PUP2]	3.41 ± 0.11	3.51 ± 0.11	2.99 ± 0.076	3.28 ± 0.071
KEKIKGLQDEIMKIGGI [SMC4]	3 ± 0.09	3.19 ± 0.055	3.17 ± 0.049	3.36 ± 0.063
KELDQELIIDPLFKKAL [BRN1]	3.23 ± 0.071	3.07 ± 0.073	3.13 ± 0.11	3.07 ± 0.052
KELFGEDEDEDLFGDSN [SSN2]	3.32 ± 0.2	3.54 ± 0.2	3.21 ± 0.27	3.67 ± 0.2
KELNEKIQKLEEDDEGE [RPN7]	1.2 ± 0.11	1.61 ± 0.12	1.25 ± 0.15	1.06 ± 0.08

Reference: the supplement of paper PMC9732359
